B1: mouse Stem Cell Factor, 6xHIS tag (ligand, UniProt P20826 26-190, looked up)
chain: KEICGNPVTDNVKDITKLVANLPNDYMITLNYVAGMDVLPSHCWLRDMVIQLSLSLTTLLDKFSNISEGLSNYSIIDKLGKIVDDLVLCMEENAPKNIKESPKRPETRSFTPEEFFSIFNRSIDAFKDFMVASDTSDCVLSSTLGPEKDSRVSVTKPFMLPPVAA
notes: also called mSCF; murine SCF

The target of assay [1] is T1, Human cKIT ECD-Fc (human, UniProt P10721 26-524).
T1 construct: extracellular domain; also called hcKIT; human c-KIT ECD-hIgG1 Fc fusion; not shown: human IgG1 Fc (pDOM38)
Nature of the assay: BIAcore, SCF on CM5 chip. As for the experimental part: (§1) Human and murine SCF were covalently attached to a CM5 BIAcore chip (GE Healthcare) in the presence of acetate pH 4 for both antigens. cKIT from various species were diluted to 1 μM in HBS-EP buffer (GE Healthcare) and run on the BIAcore in a 2-fold serial dilution to 1 nM.
(§2) Anti-human and anti-mouse SCF monoclonal antibodies (mAb) were used as controls (R&D systems).
Background: Surface plasmon resonance follows binding to a sensor surface in real time, without labels.

For assay [2], the target named is T2, Mouse cKIT ECD-H6 (mouse, UniProt P05532 25-527).
T2 construct: extracellular domain; also called mouse c-kit (His tagged)
T2 sequence (looked up): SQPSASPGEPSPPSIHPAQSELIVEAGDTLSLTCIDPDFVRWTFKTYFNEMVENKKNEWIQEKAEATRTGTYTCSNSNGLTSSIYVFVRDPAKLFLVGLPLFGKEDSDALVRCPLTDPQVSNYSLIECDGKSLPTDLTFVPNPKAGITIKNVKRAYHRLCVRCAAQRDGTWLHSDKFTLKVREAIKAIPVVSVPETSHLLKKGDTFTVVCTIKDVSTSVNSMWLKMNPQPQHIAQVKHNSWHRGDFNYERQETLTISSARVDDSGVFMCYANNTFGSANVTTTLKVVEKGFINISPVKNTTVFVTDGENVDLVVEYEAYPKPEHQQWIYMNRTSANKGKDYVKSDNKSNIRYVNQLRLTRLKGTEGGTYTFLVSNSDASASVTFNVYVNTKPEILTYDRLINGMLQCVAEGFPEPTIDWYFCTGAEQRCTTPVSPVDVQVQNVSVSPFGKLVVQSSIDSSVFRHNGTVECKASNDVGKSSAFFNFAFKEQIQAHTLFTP
Nature of the assay: BIAcore, SCF on CM5 chip. As for the experimental part: as §1, §2

For assay [3], the target named is T3, human c-kit (recombinant, on BIAcore chip or beads) (human, UniProt P10721 26-524).
T3 construct: extracellular domain; also called hcKIT; biotinylated human c-kit
Nature of the assay: BIAcore 2000.

Assay [4] deals with T4, human c-kit on HEL-92.1.7 and KU812 cells (human, UniProt P10721 26-976).
T4 construct: whole, on cells
Description: flow cytometry, HEL-92.1.7 cells (also YES on c-kit negative Jurkat). (In general: A flow cytometer gives signals particle by particle.)

Assay [5] addresses T5, human Stem Cell Factor, 6xHIS tag (human, UniProt P21583 26-190, limits assumed).
T5 construct: also called hSCF; human SCF
Nature of the assay: BIAcore, SCF on CM5 chip. The procedure:
as §1, §2

For assay [6], the target named is B1. Nature of the assay: BIAcore, SCF on CM5 chip. The procedure: as §1, §2

The text below walks through data of US20120253017A1 (published 2012).

T4 sequence (P10721 26-976): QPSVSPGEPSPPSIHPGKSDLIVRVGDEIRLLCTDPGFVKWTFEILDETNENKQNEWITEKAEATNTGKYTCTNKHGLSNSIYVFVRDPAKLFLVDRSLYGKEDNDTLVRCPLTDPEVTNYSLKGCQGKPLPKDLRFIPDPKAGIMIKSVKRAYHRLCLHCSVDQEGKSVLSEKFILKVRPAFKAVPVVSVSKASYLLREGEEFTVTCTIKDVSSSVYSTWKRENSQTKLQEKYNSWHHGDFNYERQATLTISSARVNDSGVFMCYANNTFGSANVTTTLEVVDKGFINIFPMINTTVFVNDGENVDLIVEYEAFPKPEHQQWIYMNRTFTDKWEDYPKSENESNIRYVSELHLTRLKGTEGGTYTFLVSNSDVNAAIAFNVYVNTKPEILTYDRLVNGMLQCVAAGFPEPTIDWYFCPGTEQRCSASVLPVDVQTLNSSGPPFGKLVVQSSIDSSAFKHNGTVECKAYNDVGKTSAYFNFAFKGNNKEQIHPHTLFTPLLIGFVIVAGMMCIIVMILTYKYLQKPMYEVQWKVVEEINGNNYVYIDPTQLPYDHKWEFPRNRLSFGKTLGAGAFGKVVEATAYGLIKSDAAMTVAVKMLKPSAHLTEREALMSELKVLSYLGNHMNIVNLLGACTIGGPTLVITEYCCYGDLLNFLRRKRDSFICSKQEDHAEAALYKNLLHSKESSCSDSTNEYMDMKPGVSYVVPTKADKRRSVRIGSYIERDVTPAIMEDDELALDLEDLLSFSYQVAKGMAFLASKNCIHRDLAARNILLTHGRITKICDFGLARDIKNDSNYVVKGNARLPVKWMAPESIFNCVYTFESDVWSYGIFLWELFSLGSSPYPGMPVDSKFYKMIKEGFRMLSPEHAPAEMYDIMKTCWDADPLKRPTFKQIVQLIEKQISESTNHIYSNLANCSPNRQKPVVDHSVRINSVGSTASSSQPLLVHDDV
T1 sequence (P10721 26-524): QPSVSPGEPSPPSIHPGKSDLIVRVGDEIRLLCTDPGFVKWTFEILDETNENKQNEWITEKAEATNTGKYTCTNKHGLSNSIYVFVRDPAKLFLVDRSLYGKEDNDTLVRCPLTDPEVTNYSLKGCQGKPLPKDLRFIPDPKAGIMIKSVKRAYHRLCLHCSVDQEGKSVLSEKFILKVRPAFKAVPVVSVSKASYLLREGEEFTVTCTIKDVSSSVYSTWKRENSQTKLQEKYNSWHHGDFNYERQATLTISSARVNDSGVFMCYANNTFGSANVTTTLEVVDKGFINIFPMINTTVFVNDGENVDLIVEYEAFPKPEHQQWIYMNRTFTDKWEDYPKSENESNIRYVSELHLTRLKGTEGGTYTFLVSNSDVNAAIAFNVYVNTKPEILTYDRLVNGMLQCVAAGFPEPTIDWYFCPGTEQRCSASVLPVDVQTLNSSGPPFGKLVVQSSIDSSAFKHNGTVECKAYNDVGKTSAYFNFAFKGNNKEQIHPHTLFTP

In assay [1], B1 had a Kd of 17.7 nM. In assay [2], the binding result is “no binding (tested: 1 µM)”.

B2: DOM28m-73 (other)
chain: EVQLLESGGGLVQPGGSLRLSCAASGFTFKHYSMNWVRQAPGKGLEWVSRISPSGVSTYYADSVKGRFTISRDNSKNTLYLQMNSLRAEDTAVYYCAKIMNSHKADEFDYWGQGTLVTVSS
notes: dAb, C-terminal FLAG tag (pDOM10)
Consider B2, for which the binding result is “no binding (tested: 1 uM)” in assay [3] and “binds” in assay [4].

B3: Cyno cKIT ECD-H6 (receptor)
chain: SQPSVSPGEPSPPSIHPAKSELIVRVGNEIRLLCIDPGFVKWTFEILDETNENKQNEWITEKAEATNTGKYTCTNKHGLSSSIYVFVRDPAKLFLVDRSLYGKEDNDTLVRCPLTDPEVTSYSLKGCQGKPLPKDLRFVPDPKAGITIKSVKRAYHRLCLHCSADQEGKSVLSDKFILKVRPAFKAVPVVSVSKASYLLREGEEFTVTCTIKDVSSSVYSTWKRENSQTKLQEKYNSWHHGDFNYERQATLTISSARVNDSGVFMCYANNTFGSANVTTTLEVVDKGFINIFPMINTTVFVNDGENVDLIVEYEAFPKPEHQQWIYMNRTFTDKWEDYPKSENESNIRYVSELHLTRLKGTEGGTYTFLVSNSDVNASIAFNVYVNTKPEILTYDRLVNGMLQCVAAGFPEPTIDWYFCPGTEQRCSASVLPVDVQTLNASGPPFGKLVVQSSIDSSAFKHNGTVECKAYNDVGKTSAYFNFAFKGNNKEQIHPHTLFTP
Take B3: the Kd in assay [5] was 369 nM; in assay [6], 867 nM.

One may read the Kd as the constant that tells how readily two partners part at equilibrium. Read a low Kd as tighter binding.
